Test results taken from publication PMC5362033, “The Vitamin B12-Dependent Photoreceptor AerR Relieves Photosystem Gene Repression by Extending the Interaction of CrtJ with Photosystem Promoters” (mBio, 2017).

B1: CrtJ (natural protein, Rhodobacter capsulatus, UniProt P26167 1-469, looked up)
chain: MTSDGSFLMRREALQRVSPDLLADIVTSACDIALVVSPGRVVESVMVNPQFGSAERFAAWQGARLSQLFSPESAQKLENRLADGPEPGRSLQLELTHAADAFTLPVRYTITRSGEDGTLLLIGRDMQPLAEVQQQLVKAQLALERDYEAQREIETRYRVLLEAHPAPLLIVSMSTGRIADLNLAAAAMIGATRAELIDAPVGQELDGRRRGEFLENLAKIAGSDPLGAVELTIRRSRRKVTVTATLFRAAGDRLLLCRLGEAEARRTRVDDTVELSERLFLKGIDAMVFLDADGTIRAANDAFLYLTDAGSAALVQGRSFADFLSRGAVDLNVLLDNVKRIGHLRHYVTRLNTDFSGQVTVELSATLFHDRATPTIALVIRDSNLADATRIMPGMASNEGLRNVMQMVGYATLRDIVSETTEIIEKMCIETALELTGNNRVAAAELLSLSRQSLYVKLRKFGLLSKDAE
notes: CrtJ, aerobic repressor of photosystem genes, Rhodobacter capsulatus (strain SB1003 is the wild-type parent); calculated molecular mass of the dimer 101.0 kDa; also called CrtJ2; CrtJ dimer; source: E. coli BL21(DE3) bearing pSUMO-CrtJ, overexpressed as SUMO-tagged protein, purified according to previous studies
B2: AerR (natural protein)
chain: MNGVAELQTVLVNRMVELATGPELGAMDLLFDEFRAAHVPVEEMATHYIPEAARQIGAAWDSDRIGFAQVTIAISRLQELLHALQTLVTADSVGCANGATVLLIVPPGEQHTLGALIVAMELRRRGVSVRIVFAPGLSDLSRLMATTRFDAALITVGSMDRVEICAKLVKTLSSLTKGRMRVAIGGAIVSQRAEALARTGADLVTNDLSLVISEFSLV

Key:
[1] = tested on: CrtJ;AerR (Rhodobacter capsulatus;Rhodobacter capsulatus); experiment: EMSA; conditions: EMSA with 10 nM bchC DNA, oxidizing (O2) or reducing (10 mM DTT), Hill fit; buffer, salt, pH and temperature not in the material (reported previously, ref. 20)
[2] = target: the molecule itself; experiment: SEC-MALS; size exclusion chromatography coupled with multiangle light scattering (Wyatt), analysed with ASTRA 6, BSA for calibration; CrtJ alone and CrtJ with added AerR
[3] = target: B1; experiment: as above; conditions: both partners purified

Molecule: bchC promoter EMSA probe, 325 bp
binding signal (fold higher affinity than CrtJ alone) [1]: 6

Molecule: B1
stoichiometry N [2]: 2

Molecule: B2
stoichiometry N [3]: 0.5 AerR per CrtJ chain (1:2)
